The target in assay [1] is GST-C2AB fusion protein of synaptotagmin I (wild type) (Drosophila). As to the kind of experiment: pull-down.
In assay [2] the target is GST-C2B fusion protein of synaptotagmin I with the syt^B-IE mutation (I420E) (Drosophila). As to the kind of experiment: pull-down.
Assay [3] deals with GST-C2B fusion protein of synaptotagmin I (wild type) (Drosophila). Briefly: pull-down.
In assay [4] the target is GST-C2AB fusion protein of synaptotagmin I with the syt^B-IE mutation (I420E) (Drosophila). Briefly: pull-down.
Another assay has as its target full length t-SNAREs. As to the kind of experiment: co-flotation.

Turning to full length t-SNAREs (complex), the fold increase of binding by Ca2+ over EGTA in assay [1] came out at 2.4 fold; in assay [4], 4.5 fold. Also, the increase of binding by Ca2+ over EGTA amounted to 0.2 units in assay [1], 0.105 units in assay [2], 0.116 units in assay [3] and 0.112 units in assay [4].
As for “synaptotagmin C2AB domain with the syt^B-IE mutation (I420E), as used in the co-flotation assay (domain or fragment)”, the percent of wild type binding (% of wild type levels) with full length t-SNAREs was found to be 70.

The record behind these values is paper PMC3092483.
